Experimental data as given in the supplement of paper PMC10724198.
± gives the standard deviation of the averaged measurements.

What was measured:
Saccharomyces cerevisiae [1] = experiment: protein stability index of tFT-peptide fusion (C-terminal peptide) (PSI (0-1 scale)); higher = more stable (slower turnover); settings: genetic background: wild type; temperature: 30 C
Saccharomyces cerevisiae [2] = experiment: as above
Method: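 MPS profiling in S. cerevisiae of the tFT-X12 degron library: putative degron peptides plus stable controls, 12 aa, fused to the C-terminus of a sfGFP-mCherry timer. Cells are FACS-sorted into 8 mCherry/sfGFP bins and deep-sequenced. PSI runs from 0 (unstable) to 1 (stable). Backgrounds are wild type, das1Δ and doa10Δ at 30 °C, and wild type, das1Δ, cdc34-1 and cdc53-1 at 37 °C; 2-3 technical replicates each.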

[3] = genetic background: cdc34-1, temperature: 37 C
[4] = genetic background: cdc53-1, temperature: 37 C
[5] = genetic background: das1 deletion, temperature: 30 C
[6] = genetic background: das1 deletion, temperature: 37 C
[7] = genetic background: doa10 deletion, temperature: 30 C
[8] = genetic background: wild type, temperature: 30 C
[9] = genetic background: wild type, temperature: 37 C
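Note: PSI is a weighted mean of sequencing reads over stability bins, variants kept only with over 10 reads, mCherry proximal and sfGFP distal, peptide attached via GGGS linker.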

| Sequence | protein stability index (Saccharomyces cerevisiae [1]) | protein stability index (Saccharomyces cerevisiae [2]; [3]) | protein stability index (Saccharomyces cerevisiae [2]; [4]) | protein stability index (Saccharomyces cerevisiae [2]; [5]) | protein stability index (Saccharomyces cerevisiae [2]; [6]) | protein stability index (Saccharomyces cerevisiae [2]; [7]) | protein stability index (Saccharomyces cerevisiae [2]; [8]) | protein stability index (Saccharomyces cerevisiae [2]; [9]) |
| --- | --- | --- | --- | --- | --- | --- | --- | --- |
| LSARVFCFWFFS | 0.31 ± 0.024 | 0.586 ± 0.018 | 0.635 ± 0.011 | 0.549 ± 0.05 | 0.677 ± 0.028 | 0.187 ± 0.017 | 0.201 ± 0.011 | 0.2852 ± 0.0022 |
| KERNKISQRKLT | 0.434 ± 0.024 | 0.65 ± 0.009 | 0.654 ± 0.034 | 0.666 ± 0.015 | 0.714 ± 0.028 | 0.143 ± 0.023 | 0.185 ± 0.018 | 0.416 ± 0.013 |
| SFIVGYRWNNRN | 0.443 ± 0.047 | 0.672 ± 0.018 | 0.738 ± 0.035 | 0.647 ± 0.015 | 0.7542 ± 0.0063 | 0.337 ± 0.033 | 0.378 ± 0.0046 | 0.5776 ± 0.0018 |
| AWWMALAVPIVA | 0.0514 ± 0.042 | 0.02 ± 0.0012 | 0.0219 ± 0.0076 | 0.103 ± 0.025 | 0.0676 ± 0.013 | 0.0817 ± 0.02 | 0.1 ± 0.023 | 0.062 ± 0.00098 |
| RRGLIFFLCCPA | 0.466 ± 0.053 | 0.38308 ± 5.8e-05 | 0.4335 ± 0.0019 | 0.336 ± 0.027 | 0.472 ± 0.013 | 0.31 ± 0.0072 | 0.332 ± 0.039 | 0.432 ± 0.011 |
| NHKNANAATLIN | 0.4548 ± 0.0018 | 0.645 ± 0.053 | 0.7192 ± 0.0061 | 0.641 ± 0.036 | 0.7266 ± 0.0038 | 0.268 ± 0.016 | 0.352 ± 0.038 | 0.6016 ± 0.0051 |
| HCLGWCFSRLSS | 0.289 ± 0.012 | 0.654 ± 0.043 | 0.7199 ± 0.00078 | 0.653 ± 0.021 | 0.766 ± 0.0092 | 0.186 ± 0.013 | 0.206 ± 0.027 | 0.4302 ± 0.0015 |
| LFLLFLCLSSLF | 0.435 ± 0.021 | 0.561 ± 0.0098 | 0.584 ± 0.012 | 0.487 ± 0.02 | 0.591 ± 0.032 | 0.448 ± 0.016 | 0.436 ± 0.035 | 0.5205 ± 0.0021 |
| CWFGLVSLFWVV | 0.429 | 0.49 ± 0.051 | 0.52 ± 0.012 | 0.421 ± 0.04 | 0.576 ± 0.0068 | 0.275 ± 0.0067 | 0.299 ± 0.015 | 0.434 ± 0.016 |
| KERHRNKRKQIA | 0.342 ± 0.038 | 0.659 ± 0.011 | 0.741 ± 0.021 | 0.66 ± 0.022 | 0.7046 ± 0.004 | 0.173 ± 0.0077 | 0.205 ± 0.035 | 0.43 ± 0.046 |
| CCLGVIASFIVW | 0.3579 ± 0.0021 | 0.247 ± 0.01 | 0.435 ± 0.15 | 0.284 ± 0.036 | 0.455 ± 0.024 | 0.236 ± 0.0065 | 0.254 ± 0.036 | 0.408 ± 0.0049 |
| YAFYLFSRILAA | 0.2795 ± 0.00053 | 0.232 ± 0.0091 | 0.302 ± 0.075 | 0.236 ± 0.025 | 0.3486 ± 0.0015 | 0.1792 ± 0.0014 | 0.208 ± 0.016 | 0.285 ± 0.013 |
| FFGFFWLFLLFC | 0.267 ± 0.0029 | 0.239 ± 0.022 | 0.222 ± 0.005 | 0.291 ± 0.021 | 0.364 ± 0.016 | 0.318 ± 0.019 | 0.202 ± 0.033 | 0.257 ± 0.02 |
| FFYVFPFFIFRF | 0.406 ± 0.065 | 0.338 ± 0.046 | 0.31 ± 0.031 | 0.364 ± 0.04 | 0.521 ± 0.017 | 0.505 ± 0.025 | 0.362 ± 0.058 | 0.449 ± 0.0095 |
| LLRLCGFPLGVG | 0.4497 ± 0.00073 | 0.466 ± 0.027 | 0.54 ± 0.0086 | 0.488 ± 0.014 | 0.55 ± 0.0049 | 0.41 ± 0.014 | 0.4004 ± 0.002 | 0.51 ± 0.017 |
| KMIVWKESIKRE | 0.535 ± 0.15 | 0.689 ± 0.065 | 0.7388 ± 0.001 | 0.633 ± 0.029 | 0.723 ± 0.015 | 0.63 ± 0.014 | 0.667 ± 0.069 | 0.693 ± 0.022 |
| AGGLLIGSVGVG | 0.45 ± 0.008 | 0.434 ± 0.013 | 0.468 ± 0.0094 | 0.4439 ± 0.0038 | 0.468 ± 0.0066 | 0.4523 ± 0.0042 | 0.4436 ± 0.0017 | 0.4604 ± 0.0028 |
| SFFWAMSLLCFV | 0.455 ± 0.043 | 0.511 ± 0.025 | 0.559 ± 0.012 | 0.443 ± 0.025 | 0.549 ± 0.018 | 0.402 ± 0.022 | 0.414 ± 0.024 | 0.498 ± 0.00077 |
| FCVLLFYCFFFF | 0.356 ± 0.03 | 0.322 ± 0.011 | 0.322 ± 0.099 | 0.276 ± 0.039 | 0.38 ± 0.0096 | 0.314 ± 0.012 | 0.273 ± 0.032 | 0.335 ± 0.041 |
| VKIEVICRVSLI | 0.429 ± 0.024 | 0.334 ± 0.031 | 0.459 ± 0.028 | 0.403 ± 0.02 | 0.495 ± 0.043 | 0.338 ± 0.0092 | 0.394 ± 0.05 | 0.404 ± 0.0055 |

| Sequence | protein stability index (Saccharomyces cerevisiae [1]) | protein stability index (Saccharomyces cerevisiae [2]; [3]) | protein stability index (Saccharomyces cerevisiae [2]; [4]) | protein stability index (Saccharomyces cerevisiae [2]; [5]) | protein stability index (Saccharomyces cerevisiae [2]; [6]) | protein stability index (Saccharomyces cerevisiae [2]; [7]) | protein stability index (Saccharomyces cerevisiae [2]; [8]) | protein stability index (Saccharomyces cerevisiae [2]; [9]) |
| --- | --- | --- | --- | --- | --- | --- | --- | --- |
| LQVPTLRLFVFF | 0.3 ± 0.0049 | 0.584 ± 0.029 | 0.724 ± 0.033 | 0.577 ± 0.02 | 0.698 ± 0.021 | 0.197 ± 0.0017 | 0.224 ± 0.012 | 0.398 ± 0.026 |
| PFFHVFLLLLLI | 0.195 ± 0.0064 | 0.153 ± 0.011 | 0.1359 ± 0.00032 | 0.188 ± 0.022 | 0.258 ± 0.0067 | 0.313 ± 0.021 | 0.154 ± 0.017 | 0.213 ± 0.0042 |
| CLILGLFSLIFL | 0.482 ± 0.027 | 0.525 ± 0.061 | 0.5644 ± 0.00097 | 0.452 ± 0.018 | 0.561 ± 0.011 | 0.4758 ± 0.0028 | 0.441 ± 0.016 | 0.531 ± 0.056 |
| KIRGYLMPLTLL | 0.503 ± 0.037 | 0.56 ± 0.037 | 0.6 ± 0.0051 | 0.557 ± 0.027 | 0.709 ± 0.014 | 0.4659 ± 0.0027 | 0.432 ± 0.0072 | 0.548 ± 0.028 |
| DPPRPIMRIHMI | 0.181 ± 0.0027 | 0.553 ± 0.065 | 0.651 ± 0.042 | 0.671 ± 0.059 | 0.719 ± 0.016 | 0.115 ± 0.021 | 0.111 ± 0.015 | 0.171 ± 0.027 |
| PPPNSSTSPPCS | 0.196 ± 0.015 | 0.6572 ± 0.003 | 0.725 ± 0.017 | 0.661 ± 0.036 | 0.683 ± 0.011 | 0.681 ± 0.029 | 0.687 ± 0.0096 | 0.677 ± 0.013 |
| PLFPLLGLLFFF | 0.461 ± 0.046 | 0.595 ± 0.029 | 0.6147 ± 0.0041 | 0.513 ± 0.032 | 0.592 ± 0.02 | 0.472 ± 0.032 | 0.496 ± 0.039 | 0.558 ± 0.018 |
| YHFSLFFPLSLP | 0.482 ± 0.0063 | 0.685 ± 0.022 | 0.73 ± 0.028 | 0.607 ± 0.015 | 0.711 ± 0.0088 | 0.378 ± 0.0088 | 0.383 ± 0.017 | 0.568 ± 0.032 |
| CGLGKVLGWRWV | 0.4241 ± 0.0014 | 0.643 ± 0.036 | 0.7267 ± 0.002 | 0.64 ± 0.015 | 0.745 ± 0.023 | 0.185 ± 0.0019 | 0.227 ± 0.01 | 0.5193 ± 0.0018 |
| GVFRYKLILRKM | 0.337 ± 0.05 | 0.527 ± 0.056 | 0.614 ± 0.018 | 0.586 ± 0.015 | 0.634 ± 0.017 | 0.269 ± 0.0066 | 0.272 ± 0.014 | 0.435 ± 0.012 |
| SILFSYFCFFLL | 0.356 ± 0.01 | 0.523 ± 0.027 | 0.545 ± 0.019 | 0.441 ± 0.031 | 0.586 ± 0.014 | 0.274 ± 0.0065 | 0.273 ± 0.028 | 0.443 ± 0.0077 |
| YNTRLCTFSCML | 0.755 ± 0.0089 | 0.772 ± 0.013 | 0.8079 ± 0.007 | 0.668 ± 0.033 | 0.7881 ± 0.0015 | 0.657 ± 0.025 | 0.698 ± 0.021 | 0.772 ± 0.011 |
| RNWVVDGWRRFP | 0.282 ± 0.069 | 0.656 ± 0.03 | 0.7425 ± 0.0034 | 0.684 ± 0.019 | 0.73543 ± 0.00011 | 0.17 ± 0.0075 | 0.192 ± 0.039 | 0.525 ± 0.031 |
| DCRFIIFYCVMV | 0.457 ± 0.029 | 0.48 ± 0.022 | 0.5 ± 0.019 | 0.434 ± 0.053 | 0.509 ± 0.019 | 0.454 ± 0.06 | 0.454 ± 0.037 | 0.506 ± 0.019 |
| IYNIIFKYRTIT | 0.127 ± 0.084 | 0.525 ± 0.036 | 0.581 ± 0.014 | 0.575 ± 0.0086 | 0.661 ± 0.073 | 0.0671 ± 0.0022 | 0.0987 ± 0.019 | 0.118 ± 0.016 |
| SVSMYPKPHLIC | 0.243 ± 0.0026 | 0.571 ± 0.057 | 0.682 ± 0.023 | 0.596 ± 0.034 | 0.698 ± 0.034 | 0.119 ± 0.015 | 0.13 ± 0.017 | 0.181 ± 0.015 |
| LSFLCFSTVLHC | 0.503 ± 0.073 | 0.557 ± 0.0096 | 0.606 ± 0.019 | 0.511 ± 0.017 | 0.58 ± 0.019 | 0.46 ± 0.022 | 0.462 ± 0.03 | 0.54302 ± 0.00015 |
| MALAVRVVPCGA | 0.397 ± 0.017 | 0.373 ± 0.012 | 0.385 ± 0.011 | 0.291 ± 0.028 | 0.4637 ± 0.0008 | 0.264 ± 0.011 | 0.287 ± 0.037 | 0.421 ± 0.0078 |
| RGVGSGGLEGIG | 0.541 ± 0.061 | 0.509 ± 0.06 | 0.5457 ± 0.0032 | 0.5178 ± 0.001 | 0.543 ± 0.025 | 0.51 ± 0.004 | 0.514 ± 0.021 | 0.5404 ± 0.0019 |
